According to PMC10359466:

Legend:
HsRPA1 DBD-AB = HsRPA1 DBD-AB (Homo sapiens, UniProt P27694 181-427); assay: MST; 20 mM Tris pH 7.5, 10 mM NaCl, 10 mM MgCl2, 2 mM DTT, 10% glycerol, 0.1 mg/ml BSA, 15 min, room temperature; EMSA 2 nM probe (gel at 4 C), MST 10 nM probe; conditions: protein: recombinant; tags: 6xHis (pET28a); label: 5' Cy5 (MST) or 5' IRDye800 (EMSA); single strand
TcRPA1 DBD-AB T105S = TcRPA1 DBD-AB T105S (Trypanosoma cruzi, UniProt Q4DXC9 2-257, T105S); assay: as above; conditions: protein: recombinant; tags: N-term 6xHis; label: 5' Cy5 (MST) or 5' IRDye800 (EMSA); single strand
TbRPA1 DBD-AB S105T = TbRPA1 DBD-AB S105T (Trypanosoma brucei, UniProt Q384B5 1-257, S105T); assay: as above; conditions: protein: recombinant; tags: N-term 6xHis; label: 5' Cy5 (MST) or 5' IRDye800 (EMSA); single strand
TbRPA1 DBD-AB = biological target: T1, TbRPA1 DBD-AB (Trypanosoma brucei, UniProt Q384B5 1-257); assay: as above; conditions: protein: recombinant; tags: N-term 6xHis (pET28a); label: 5' Cy5 (MST) or 5' IRDye800 (EMSA); single strand
T1 sequence: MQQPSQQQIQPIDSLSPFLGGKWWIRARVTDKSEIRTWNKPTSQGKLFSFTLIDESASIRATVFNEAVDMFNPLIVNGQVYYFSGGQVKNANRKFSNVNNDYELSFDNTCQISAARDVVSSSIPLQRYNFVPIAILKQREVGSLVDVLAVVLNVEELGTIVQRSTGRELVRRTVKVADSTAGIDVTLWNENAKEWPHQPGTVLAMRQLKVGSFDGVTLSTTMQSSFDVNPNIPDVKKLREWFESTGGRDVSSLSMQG

TbRPA1 DBD-AB W188A = TbRPA1 DBD-AB W188A (Trypanosoma brucei, UniProt Q384B5 1-257, W188A); assay: EMSA, MST; 20 mM Tris pH 7.5, 10 mM NaCl, 10 mM MgCl2, 2 mM DTT, 10% glycerol, 0.1 mg/ml BSA, 15 min, room temperature; EMSA 2 nM probe (gel at 4 C), MST 10 nM probe; conditions: protein: recombinant; tags: N-term 6xHis; label: 5' Cy5 (MST) or 5' IRDye800 (EMSA); single strand
TbRPA1 DBD-AB F64A = TbRPA1 DBD-AB F64A (Trypanosoma brucei, UniProt Q384B5 1-257, F64A); assay: as above; conditions: protein: recombinant; tags: N-term 6xHis; label: 5' Cy5 (MST) or 5' IRDye800 (EMSA); single strand

Sequence of HsRPA1 DBD-AB (P27694 181-427): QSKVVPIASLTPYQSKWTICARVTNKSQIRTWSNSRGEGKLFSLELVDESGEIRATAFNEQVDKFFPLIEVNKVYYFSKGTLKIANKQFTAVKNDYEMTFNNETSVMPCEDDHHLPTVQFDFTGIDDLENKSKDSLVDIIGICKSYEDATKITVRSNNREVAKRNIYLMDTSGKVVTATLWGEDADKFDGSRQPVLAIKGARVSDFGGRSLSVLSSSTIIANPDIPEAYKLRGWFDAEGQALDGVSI

Row | Binder | Kd (HsRPA1 DBD-AB) | Kd (TcRPA1 DBD-AB T105S) | Kd (TbRPA1 DBD-AB S105T) | Kd (TbRPA1 DBD-AB) | binding result (TbRPA1 DBD-AB W188A) | binding result (TbRPA1 DBD-AB F64A)
1 | TTTTTTTTTTTTTTTTTTTTTTTTTTTTTTTT (ssDNA) [dT32] | 48 ± 37.4 nM | 52.4 ± 27.9 nM | 21.9 ± 2.7 nM | 24.6 ± 12.4 nM | no binding | no binding
2 | TTTTTTTTTTTTTTTTTTTT (ssDNA) [dT20] | – | – | – | 30.5 nM | – | –
